Test results from the supplement of paper PMC7125110.
± gives the standard error. For some of these results: Variants at the floor of the assay were thinned out.

B1: glmS ribozyme (parent)
chain: AUAAAAGCGCCAGAACUACAGAAAUGUAGUUGACGAGGAGGAGGUUUAUCGAAUUUUCGGCGGAUGCCUCCAAA

Experiments:
Details in all cases: with glucosamine-6-phosphate
[1] = variants of: B1; assay: kcat; higher = faster cleavage; RNA array
Procedure, shortened: (§1)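 Sequenced MiSeq chips were the platform: E. coli RNA polymerase transcribed barcoded ribozyme variants on them in situ, and a hybridised Cy3 probe tracked these at 37 °C. After glucosamine-6-phosphate (40 μM to 10 mM) in HEPES/KCl/Mg(OAc)2 buffer was flowed in, tiles were imaged over ~14 h. Signals normalised to baseline and to non-cleaving reference variants were reduced to per-tile medians and fit to one- or two-exponential decays to obtain kobs. kcat and KM were derived through weighted Michaelis–Menten fits across concentrations.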

[2] = variants of: B1; assay: self-cleavage kobs at 40 uM GlcN6P; higher = faster cleavage; RNA array
Procedure, shortened: as §1

[3] = variants of: B1; assay: self-cleavage kobs at 160 uM GlcN6P; higher = faster cleavage; RNA array
Procedure, shortened: as §1

[4] = variants of: B1; assay: self-cleavage kobs at 640 uM GlcN6P; higher = faster cleavage; RNA array
Procedure, shortened: as §1

[5] = variants of: B1; assay: self-cleavage kobs at 2500 uM GlcN6P; higher = faster cleavage; RNA array
Procedure, shortened: as §1

[6] = variants of: B1; assay: self-cleavage kobs at 10000 uM GlcN6P; higher = faster cleavage; RNA array
Procedure, shortened: as §1

[7] = variants of: B1; assay: KM; higher = weaker cofactor use; RNA array
Procedure, shortened: as §1

In the case of AUAAAAGCGCCAUGACUACAGAAAUGUAGUUGACGAGGAGGAGGUUUAUCGAAUUUUCGGCGGAUGCCUCCAAA [G13U A14G], the kcat [1] is reported as 0.00536 ± 0.0022 s⁻¹, the “self-cleavage kobs at 40 uM GlcN6P” value [2] is reported as 0.000124 ± 2e-05 s⁻¹ and the “self-cleavage kobs at 160 uM GlcN6P” value [3] is reported as 0.00019 ± 7.3e-05 s⁻¹. For the same variant, the “self-cleavage kobs at 640 uM GlcN6P” value [4] was 0.00104 ± 0.00019 s⁻¹, the “self-cleavage kobs at 2500 uM GlcN6P” value [5] was 0.00171 ± 0.00049 s⁻¹ and the “self-cleavage kobs at 10000 uM GlcN6P” value [6] was 0.00495 ± 0.00073 s⁻¹.

Work on AUAAAAGCGCCAUGACUACAGAAAUGUAGUUGACGAGGAGGAGGUUUAUCGAAUUUUCGGUGGAUGCCUGCAAA [G13U A14G C61U C70G] yielded a kcat [1] of 1.9e-05 ± 5.3e-06 s⁻¹.

For AUAAAAGCGCCAUAACUACAGAAAUGUAGUUGAUGAGGAGGAGGUUUAUCGAAUUUUCGGCGGAUGCCUCCAAA [G13U C34U], the kcat [1] was < 1e-05 s⁻¹, the “self-cleavage kobs at 40 uM GlcN6P” value [2] was < 1e-05 s⁻¹ and the “self-cleavage kobs at 2500 uM GlcN6P” value [5] was < 1e-05 s⁻¹.

For AUAAAAGCGCCAUAACUACAGAAAUGUAGUUGACGAGGUGGAGGUUUAUCGAAUUUUCGGCGGAUGCCUCCAAA [G13U A39U], the kcat [1] was 0.0016 ± 0.0003 s⁻¹, the KM [7] was 4.77 ± 1.4 mM and the “self-cleavage kobs at 40 uM GlcN6P” value [2] was 3.33e-05 ± 1.6e-05 s⁻¹. The “self-cleavage kobs at 160 uM GlcN6P” value [3] was 4.9e-05 ± 1.9e-05 s⁻¹, the “self-cleavage kobs at 640 uM GlcN6P” value [4] was 0.000197 ± 3.6e-05 s⁻¹ and the “self-cleavage kobs at 2500 uM GlcN6P” value [5] was 0.000513 ± 8.1e-05 s⁻¹. For the same variant, the “self-cleavage kobs at 10000 uM GlcN6P” value [6] was 0.00112 ± 0.00016 s⁻¹.

With AUAAAAGCGCCACAACUACAGAAAUGUAGUUAACGAGGAGGAGGUUUAUCGAAUUUUCGGCGGAUGCCUCCAAA [G13C G32A] the kcat [1] was 0.00943 ± 0.0032 s⁻¹, the KM [7] was 3.62 ± 1.6 mM and the “self-cleavage kobs at 40 uM GlcN6P” value [2] was 0.000142 ± 1.5e-05 s⁻¹. For the same variant, the “self-cleavage kobs at 160 uM GlcN6P” value [3] was 0.000338 ± 6.2e-05 s⁻¹, the “self-cleavage kobs at 640 uM GlcN6P” value [4] was 0.00124 ± 0.00016 s⁻¹ and the “self-cleavage kobs at 2500 uM GlcN6P” value [5] was 0.00305 ± 0.00052 s⁻¹. The “self-cleavage kobs at 10000 uM GlcN6P” value [6] was 0.00781 ± 0.00085 s⁻¹.

In the case of AUAAAAGCGCCACAACUACAGAAAUGUAGUUUACGAGGAGGAGGUUUAUCGAAUUUUCGGCGGAUGCCUCCAAA [G13C G32U], the kcat [1] is reported as 0.000576 ± 4.2e-05 s⁻¹, the KM [7] is reported as 3.17 ± 0.47 mM and the “self-cleavage kobs at 640 uM GlcN6P” value [4] is reported as 8.34e-05 ± 4.1e-05 s⁻¹. The “self-cleavage kobs at 2500 uM GlcN6P” value [5] was 0.000258 ± 5.7e-05 s⁻¹ and the “self-cleavage kobs at 10000 uM GlcN6P” value [6] was 0.000436 ± 7.7e-05 s⁻¹.

With AUAAAAGCGCCACAACUACAGAAAUGUAGGUGACGAGGAGGAGGUUUAUCGAAUUUUCGGCGGAUGCCUCCAAA [G13C U30G] the kcat [1] was 3.93e-05 ± 3.7e-06 s⁻¹, the KM [7] was 2.1 ± 0.83 mM and the “self-cleavage kobs at 10000 uM GlcN6P” value [6] was 3.23e-05 ± 9.3e-06 s⁻¹.

With AUAAAAGCGCCACAACUACAGAAAUGUAGUGGACGAGGAGGAGGUUUAUCGAAUUUUCGGCGGAUGCCUCCAAA [G13C U31G] the kcat [1] was 0.000196 ± 4.5e-06 s⁻¹, the KM [7] was 1.56 ± 0.09 mM and the “self-cleavage kobs at 640 uM GlcN6P” value [4] was 5.79e-05 ± 1.2e-05 s⁻¹. The “self-cleavage kobs at 2500 uM GlcN6P” value [5] was 0.000119 ± 1.8e-05 s⁻¹ and the “self-cleavage kobs at 10000 uM GlcN6P” value [6] was 0.00017 ± 2.2e-05 s⁻¹.
